Experiments:
[1] = substrate: NCc1c[nH]c2nc(N)[nH]c(=O)c12; assay: [3H]-preQ1 incorporation into tRNA(Tyr), scintillation counting; format: biochemical, Zymomonas mobilis; settings: 15 µM E. coli tRNA(Tyr), 200 mM HEPES pH 7.3, 20 mM MgCl2, 37°C, labelled compound
Text: [3H]-preQ1 incorporation into tRNA(Tyr), scintillation counting on Z. mobilis Tgt ("wild type" Tgt = Tgt(Tyr106Phe))

purified protein = substrate: Nc1nc2nc[nH]c2c(=O)[nH]1; assay: purified protein; format: biochemical, Zymomonas mobilis; settings: 15 µM E. coli tRNA(Tyr), 200 mM HEPES pH 7.3, 20 mM MgCl2, 37°C, labelled compound

Protein | Km [1] [µM] | kcat [1] [s⁻¹] | Km (purified protein) [µM] | kcat (purified protein) [s⁻¹]
Z. mobilis Tgt ("wild type" Tgt = Tgt(Tyr106Phe)) (Zymomonas mobilis subsp. mobilis ZM4 = ATCC 31821; V233G/Y106F) (protein, recombinant from pET9d-ZM-Y106F in E. coli BL21(DE3)/pLysS, purified; homodimer; all variants including "wild type" carry Tyr106Phe) VEATAQETDRPRFSFSIAAREGKARTGTIEMKRGVIRTPAFMPVGTAATVKALKPETVRATGADIILGNTYHLMLRPGAERIAKLGGLHSFMGWDRPILTDSGGFQVMSLSSLTKQSEEGVTFKSHLDGSRHMLSPERSIEIQHLLGSDIVMAFDECTPYPATPSRAASSMERSMRWAKRSRDAFDSRKEQAENAALFGIQQGSVFENLRQQSADALAEIGFDGYAVGGLAGGEGQDEMFRVLDFSVPMLPDDKPHYLMGVGKPDDIVGAVERGIDMFDCVLPTRSGRNGQAFTWDGPINIRNARFSEDLTPLDSECHCAVCQKWSRAYIHHLIRAGEILGAMLMTEHNIAFYQQLMQKIRDSISEGRFSQFAQDFRARYFARNS | 0.6 ± 0.1 | 0.0063 ± 0.0002 | 1.0 ± 0.2 | 0.0046 ± 0.0003
Z. mobilis Tgt ("wild type" Tgt = Tgt(Tyr106Phe)) (Zymomonas mobilis subsp. mobilis ZM4 = ATCC 31821; Y106F) (protein, recombinant from pET9d-ZM-Y106F in E. coli BL21(DE3)/pLysS, purified; homodimer; all variants including "wild type" carry Tyr106Phe) VEATAQETDRPRFSFSIAAREGKARTGTIEMKRGVIRTPAFMPVGTAATVKALKPETVRATGADIILGNTYHLMLRPGAERIAKLGGLHSFMGWDRPILTDSGGFQVMSLSSLTKQSEEGVTFKSHLDGSRHMLSPERSIEIQHLLGSDIVMAFDECTPYPATPSRAASSMERSMRWAKRSRDAFDSRKEQAENAALFGIQQGSVFENLRQQSADALAEIGFDGYAVGGLAVGEGQDEMFRVLDFSVPMLPDDKPHYLMGVGKPDDIVGAVERGIDMFDCVLPTRSGRNGQAFTWDGPINIRNARFSEDLTPLDSECHCAVCQKWSRAYIHHLIRAGEILGAMLMTEHNIAFYQQLMQKIRDSISEGRFSQFAQDFRARYFARNS | 0.9 ± 0.1 | 0.106 ± 0.0027 | 1.2 ± 0.2 | 0.0558 ± 0.0001
Z. mobilis Tgt ("wild type" Tgt = Tgt(Tyr106Phe)) (Zymomonas mobilis subsp. mobilis ZM4 = ATCC 31821; C158V/V233G/Y106F) (protein, recombinant from pET9d-ZM-Y106F in E. coli BL21(DE3)/pLysS, purified; homodimer; all variants including "wild type" carry Tyr106Phe) VEATAQETDRPRFSFSIAAREGKARTGTIEMKRGVIRTPAFMPVGTAATVKALKPETVRATGADIILGNTYHLMLRPGAERIAKLGGLHSFMGWDRPILTDSGGFQVMSLSSLTKQSEEGVTFKSHLDGSRHMLSPERSIEIQHLLGSDIVMAFDEVTPYPATPSRAASSMERSMRWAKRSRDAFDSRKEQAENAALFGIQQGSVFENLRQQSADALAEIGFDGYAVGGLAGGEGQDEMFRVLDFSVPMLPDDKPHYLMGVGKPDDIVGAVERGIDMFDCVLPTRSGRNGQAFTWDGPINIRNARFSEDLTPLDSECHCAVCQKWSRAYIHHLIRAGEILGAMLMTEHNIAFYQQLMQKIRDSISEGRFSQFAQDFRARYFARNS | 13.5 ± 3.1 | 0.001 ± 0.0003 | 2.7 ± 0.3 | 0.0006 ± 0.0001
Z. mobilis Tgt ("wild type" Tgt = Tgt(Tyr106Phe)) (Zymomonas mobilis subsp. mobilis ZM4 = ATCC 31821; C158V/Y106F) (protein, recombinant from pET9d-ZM-Y106F in E. coli BL21(DE3)/pLysS, purified; homodimer; all variants including "wild type" carry Tyr106Phe) VEATAQETDRPRFSFSIAAREGKARTGTIEMKRGVIRTPAFMPVGTAATVKALKPETVRATGADIILGNTYHLMLRPGAERIAKLGGLHSFMGWDRPILTDSGGFQVMSLSSLTKQSEEGVTFKSHLDGSRHMLSPERSIEIQHLLGSDIVMAFDEVTPYPATPSRAASSMERSMRWAKRSRDAFDSRKEQAENAALFGIQQGSVFENLRQQSADALAEIGFDGYAVGGLAVGEGQDEMFRVLDFSVPMLPDDKPHYLMGVGKPDDIVGAVERGIDMFDCVLPTRSGRNGQAFTWDGPINIRNARFSEDLTPLDSECHCAVCQKWSRAYIHHLIRAGEILGAMLMTEHNIAFYQQLMQKIRDSISEGRFSQFAQDFRARYFARNS | 16.0 ± 2.4 | 0.035 ± 0.0008 | 1.4 ± 0.2 | 0.0275 ± 0.0002
